“And” between values parts separate entries of the source, which are not always exact repeats. Identical values can stand only once. Like-named read-outs stand apart in the source and are kept apart here.
How the values were obtained:
[1] = target: Nrx1β-Fc (neurexin-1β C-terminally fused to human Fc) (UniProt Q63373)
[2] = target: Nrx1β-Fc (neurexin-1β C-terminally fused to human Fc) (UniProt Q63373); remark: listed apart in the source
[3] = target: Nrx1β-Fc (neurexin-1β C-terminally fused to human Fc) (UniProt Q63373); remark: listed apart in the source
[4] = target: Nlg1-GFP, wild type, in HEK cell lysate (UniProt Q99K10); test: single molecule pull-down with counting of photobleaching steps
[5] = target: Nrx1β-Fc (neurexin-1β C-terminally fused to human Fc) (UniProt Q63373); remark: listed apart in the source
[6] = target: Nlg1^E584A/L585A-GFP, in HEK cell lysate (UniProt Q99K10); test: single molecule pull-down with counting of photobleaching steps
[7] = target: Nrx1β-Fc (neurexin-1β C-terminally fused to human Fc) (UniProt Q63373); test: FRAP of soluble fluorescent protein bound to ligand-coated micropatterns

Molecule “HA-Nlg1-GFP (-21), wild type, expressed in COS-7 cells (from UniProt Q99K10 46-843) (receptor)” has a koff [1] of 0.004 s⁻¹ and an enrichment level E (fluorescence on ligand stripes / PEG lines) [2] of 2.3.

“AP-Nlg1 (AP-tagged Nlg1, full length), expressed in COS-7 cells (from UniProt Q62765 46-843) (receptor)” was tested, and the koff of the reaction part of the PSD-95-GFP FRAP curves [3] was 0.005 s⁻¹ and 0.008 s⁻¹.

In the case of “Nlg1-GFP, wild type, in HEK cell lysate (from UniProt Q99K10 46-843) (receptor)”, the stoichiometry N [4] is reported as 2.

With “HA-Nlg1^E584A/L585A-GFP (-21), expressed in COS-7 cells (from UniProt Q99K10 46-843) (receptor)” the enrichment level E (fluorescence on ligand stripes / PEG lines) [5] was 2.5.

With “Nlg1^E584A/L585A-GFP, in HEK cell lysate (from UniProt Q99K10 46-843) (receptor)” the percent in a monomeric form (1 photobleaching step) [6] was 55%.

B1: Nlg1-HaloTag-AF488 (purified dimeric Nlg1 C-terminally fused to Halo-tag, conjugated to AF488) (other)
chain: QKLDDVDPLVTTNFGKIRGIKKELNNEILGPVIQFLGVPYAAPPTGEHRFQPPEPPSPWSDIRNATQFAPVCPQNIIDGRLPEVMLPVWFTNNLDVVSSYVQDQSEDCLYLNIYVPTEDVKRISKECARKPGKKICRKGDIRDSGGPKPVMVYIHGGSYMEGTGNLYDGSVLASYGNVIVITVNYRLGVLGFLSTGDQAAKGNYGLLDLIQALRWTSENIGFFGGDPLRITVFGSGAGGSCVNLLTLSHYSEGNRWSNSTKGLFQRAIAQSGTALSSWAVSFQPAKYARILATKVGCNVSDTVELVECLQKKPYKELVDQDVQPARYHIAFGPVIDGDVIPDDPQILMEQGEFLNYDIMLGVNQGEGLKFVENIVDSDDGVSASDFDFAVSNFVDNLYGYPEGKDVLRETIKFMYTDWADRHNPETRRKTLLALFTDHQWVAPAVATADLHSNFGSPTYFYAFYHHCQTDQVPAWADAAHGDEVPYVLGIPMIGPTELFPCNFSKNDVMLSAVVMTYWTNFAKTGDPNQPVPQDTKFIHTKPNRFEEVAWTRYSQKDQLYLHIGLKPRVKEHYRANKVNLWLELVPHLHNLNDISQYTSTTTKVPSTDITLRPTRKNSTPVTSAFPTAKQDDPKQQPSPFSVDQRDYSTELS
modifications: HaloTag-Alexa488 ligand (Promega G1002) coupled to the HaloTag
In the case of B1, the koff [7] is reported as roughly 0.0015 s⁻¹.
